In patent publication US20210396758A1 (AMLO BIOSCIENCES, published 2021):
One block for each binder: values may come before it. Ends that are not written are not given here.

What was measured:
[1] = target: T1, N1-CD33-His6 (the ectodomain of human CD33 fused to the N1 domain of the g3p filamentous phage M13) (filamentous phage M13; human, UniProt P20138 18-259); assay: QC ELISA, purified Fab on immobilized control protein; signal (x-fold) over background
T1 construct: extracellular domain; not shown: N1 domain of g3p of filamentous phage M13

[2] = target: T2, Ambra-1 peptide (synthesized peptide to which anti-Ambra-1 antibodies were raised) (human, not fully specified); assay: QC ELISA of the chimeric human/mouse IgG1 antibody on immobilized Ambra-1 peptide conjugates Amb1-TRF and Amb1-BSA; signal over background
T2 construct: Tested in ELISA in native and denatured form; also called Ambra-1 antigen
T2 peptide: CGGSSRGDAAGPRGEPRNR

[3] = target: T1, N1-CD33-His6 (the ectodomain of human …); assay: QC ELISA of the chimeric human/mouse IgG1 antibody on immobilized control protein; signal over background
human Ambra-1 = target: T3, human Ambra-1 (human, UniProt Q9C0C7 1-1298); assay: automated immunohistochemistry (Ventana Benchmark XT), chimeric mouse IgG1 format
T3 construct: the protein stood in tissue sections (immunohistochemistry)
T3 sequence: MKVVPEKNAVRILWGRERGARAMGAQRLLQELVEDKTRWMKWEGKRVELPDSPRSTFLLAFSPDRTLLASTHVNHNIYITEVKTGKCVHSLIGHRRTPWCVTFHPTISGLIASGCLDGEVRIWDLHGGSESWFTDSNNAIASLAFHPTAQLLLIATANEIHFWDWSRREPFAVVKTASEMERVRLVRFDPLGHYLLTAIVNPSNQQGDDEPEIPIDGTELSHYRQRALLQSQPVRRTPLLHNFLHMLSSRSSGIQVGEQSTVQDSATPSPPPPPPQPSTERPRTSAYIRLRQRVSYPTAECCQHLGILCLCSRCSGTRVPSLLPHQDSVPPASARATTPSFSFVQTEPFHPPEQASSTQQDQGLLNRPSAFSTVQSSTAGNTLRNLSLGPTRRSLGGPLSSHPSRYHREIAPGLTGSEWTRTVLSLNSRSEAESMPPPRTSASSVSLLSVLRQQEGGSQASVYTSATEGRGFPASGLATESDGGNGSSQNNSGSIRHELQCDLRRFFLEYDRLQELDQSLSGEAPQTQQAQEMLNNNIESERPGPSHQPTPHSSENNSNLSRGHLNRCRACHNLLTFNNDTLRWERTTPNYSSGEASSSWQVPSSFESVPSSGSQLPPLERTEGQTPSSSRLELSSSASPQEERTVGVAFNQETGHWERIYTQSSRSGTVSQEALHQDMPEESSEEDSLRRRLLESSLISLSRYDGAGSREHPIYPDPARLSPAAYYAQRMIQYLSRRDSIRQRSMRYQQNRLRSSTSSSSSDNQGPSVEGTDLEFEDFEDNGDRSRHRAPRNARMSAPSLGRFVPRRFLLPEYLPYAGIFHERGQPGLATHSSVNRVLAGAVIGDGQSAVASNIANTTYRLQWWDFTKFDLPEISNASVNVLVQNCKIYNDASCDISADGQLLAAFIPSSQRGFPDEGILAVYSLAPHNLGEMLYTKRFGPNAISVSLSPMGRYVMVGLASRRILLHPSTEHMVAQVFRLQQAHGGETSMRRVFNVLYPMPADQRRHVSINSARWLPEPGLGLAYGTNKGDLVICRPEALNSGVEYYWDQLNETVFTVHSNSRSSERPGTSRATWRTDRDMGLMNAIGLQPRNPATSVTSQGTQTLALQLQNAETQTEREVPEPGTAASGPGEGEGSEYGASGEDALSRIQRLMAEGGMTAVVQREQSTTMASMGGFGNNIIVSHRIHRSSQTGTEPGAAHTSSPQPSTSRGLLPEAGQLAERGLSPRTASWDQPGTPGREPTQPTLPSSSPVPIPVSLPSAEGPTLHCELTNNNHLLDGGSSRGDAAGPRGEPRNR

[4] = target: T1, N1-CD33-His6 (the ectodomain of human …); assay: QC ELISA of the chimeric human/mouse IgG1 antibody on immobilized control protein; signal over background; remark: listed apart in the source

T1 sequence (P20138 18-259, tags left off): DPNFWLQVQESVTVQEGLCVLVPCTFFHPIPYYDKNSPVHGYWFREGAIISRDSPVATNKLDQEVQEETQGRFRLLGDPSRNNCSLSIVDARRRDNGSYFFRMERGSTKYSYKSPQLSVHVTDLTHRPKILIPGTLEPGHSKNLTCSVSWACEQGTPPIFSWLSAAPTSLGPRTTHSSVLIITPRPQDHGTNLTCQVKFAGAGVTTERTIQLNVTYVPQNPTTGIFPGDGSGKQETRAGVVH

binding result [1]: no binding
B1: HuCAL recombinant monoclonal antibody fragment against human Ambra-1, AbD33473.1, bivalent Fab (Fab-A-FH) (Fab)
heavy: EVQLVQSGAEVKKPGESLKISCKGSGYSFSSYWIHWVRQMPGKGLEWMGTIFPSRSYTTYSPSFQGQVTISADKSISTAYLQWSSLKASDTAMYYCARDTPSTALKSPFDYWGQGTLVTVSSASTKGPSVFPLAPSSKSTSGGTAALGCLVKDYFPEPVTVSWNSGALTSGVHTFPAVLQSSGLYSLSSVVTVPSSSLGTQTYICNVNHKPSNTKVDKKVEPKSRTPEMPVLENRAAQGDITAPGGARRLTGDQTAALRDSLSDKPAKNIILLIGDGMGDSEITAARNYAEGAGGFFKGIDALPLTGQYTHYALNKKTGKPDYVTDSAASATAWSTGVKTYNGALGVDIHEKDHPTILEMAKAAGLATGNVSTAELQDATPAALVAHVTSRKCYGPSATSEKCPGNALEKGGKGSITEQLLNARADVTLGGGAKTFAETATAGEWQGKTLREQAQARGYQLVSDAASLNSVTEANQQKPLLGLFADGNMPVRWLGPKATYHGNIDKPAVTCTPNPQRNDSVPTLAQMTDKAIELLSKNEKGFFLQVEGASIDKQDHAANPCGQIGETVDLDEAVQRALEFAKKEGNTLVIVTADHAHASQIVAPDTKAPGLTQALNTKDGAVMVMSYGNSEEDSQEHTGSQLRIAAYGPHAANVVGLTDQTDLFYTMKAALGLKDYKDDDDKHHHHHH
light: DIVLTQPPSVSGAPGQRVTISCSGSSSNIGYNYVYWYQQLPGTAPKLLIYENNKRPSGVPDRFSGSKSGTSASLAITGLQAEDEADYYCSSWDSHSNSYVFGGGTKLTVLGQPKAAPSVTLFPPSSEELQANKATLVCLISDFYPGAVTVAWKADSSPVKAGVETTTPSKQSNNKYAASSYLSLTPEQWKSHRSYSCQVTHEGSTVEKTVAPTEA
notes: domain: alkaline phosphatase dimerization domain

binding result [2]: binds
binding result [3]: no binding
binding result (human Ambra-1): binds
B2: AbD33473 full length chimeric antibody against human Ambra-1 with an IgG1 mouse Fc region (antibody, V domains shown)
VH: EVQLVQSGAEVKKPGESLKISCKGSGYSFSSYWIHWVRQMPGKGLEWMGTIFPSRSYTTYSPSFQGQVTISADKSISTAYLQWSSLKASDTAMYYCARDTPSTALKSPFDYWGQGTLVTVSS
VL: DIVLTQPPSVSGAPGQRVTISCSGSSSNIGYNYVYWYQQLPGTAPKLLIYENNKRPSGVPDRFSGSKSGTSASLAITGLQAEDEADYYCSSWDSHSNSYVFGGGTKLTVLG
notes: also called recombinant monoclonal antibody AbD33473; HuCAL antibody AbD33473

binding result [4]: no binding
B3: AbD33047 full length chimeric antibody against human Loricrin with an IgG1 mouse Fc region (antibody, V domains shown)
VH: QVQLVQSGAEVKKPGASVKVSCKASGYTFNDYYIHWVRQAPGQGLEWMGVISPNSGKTNYAQKFQGRVTMTRDTSISTAYMELSRLRSEDTAVYYCARDLYPDSSAFDIWGQGTLVTVSS
VL: DIELTQPPSVSVSPGQTASITCSGDNLGDKYAHWYQQKPGQAPVLVIYDDNERPSGIPERFSGSNSGNTATLTISGTQAEDEADYYCQSYDSGNRVFGGGTKLTVLG
notes: also called recombinant monoclonal antibody AbD33047; HuCAL antibody AbD33047
